Series [1] deals with T1, Flag-SA1 WT (UniProt Q8WVM7).
T1 sequence: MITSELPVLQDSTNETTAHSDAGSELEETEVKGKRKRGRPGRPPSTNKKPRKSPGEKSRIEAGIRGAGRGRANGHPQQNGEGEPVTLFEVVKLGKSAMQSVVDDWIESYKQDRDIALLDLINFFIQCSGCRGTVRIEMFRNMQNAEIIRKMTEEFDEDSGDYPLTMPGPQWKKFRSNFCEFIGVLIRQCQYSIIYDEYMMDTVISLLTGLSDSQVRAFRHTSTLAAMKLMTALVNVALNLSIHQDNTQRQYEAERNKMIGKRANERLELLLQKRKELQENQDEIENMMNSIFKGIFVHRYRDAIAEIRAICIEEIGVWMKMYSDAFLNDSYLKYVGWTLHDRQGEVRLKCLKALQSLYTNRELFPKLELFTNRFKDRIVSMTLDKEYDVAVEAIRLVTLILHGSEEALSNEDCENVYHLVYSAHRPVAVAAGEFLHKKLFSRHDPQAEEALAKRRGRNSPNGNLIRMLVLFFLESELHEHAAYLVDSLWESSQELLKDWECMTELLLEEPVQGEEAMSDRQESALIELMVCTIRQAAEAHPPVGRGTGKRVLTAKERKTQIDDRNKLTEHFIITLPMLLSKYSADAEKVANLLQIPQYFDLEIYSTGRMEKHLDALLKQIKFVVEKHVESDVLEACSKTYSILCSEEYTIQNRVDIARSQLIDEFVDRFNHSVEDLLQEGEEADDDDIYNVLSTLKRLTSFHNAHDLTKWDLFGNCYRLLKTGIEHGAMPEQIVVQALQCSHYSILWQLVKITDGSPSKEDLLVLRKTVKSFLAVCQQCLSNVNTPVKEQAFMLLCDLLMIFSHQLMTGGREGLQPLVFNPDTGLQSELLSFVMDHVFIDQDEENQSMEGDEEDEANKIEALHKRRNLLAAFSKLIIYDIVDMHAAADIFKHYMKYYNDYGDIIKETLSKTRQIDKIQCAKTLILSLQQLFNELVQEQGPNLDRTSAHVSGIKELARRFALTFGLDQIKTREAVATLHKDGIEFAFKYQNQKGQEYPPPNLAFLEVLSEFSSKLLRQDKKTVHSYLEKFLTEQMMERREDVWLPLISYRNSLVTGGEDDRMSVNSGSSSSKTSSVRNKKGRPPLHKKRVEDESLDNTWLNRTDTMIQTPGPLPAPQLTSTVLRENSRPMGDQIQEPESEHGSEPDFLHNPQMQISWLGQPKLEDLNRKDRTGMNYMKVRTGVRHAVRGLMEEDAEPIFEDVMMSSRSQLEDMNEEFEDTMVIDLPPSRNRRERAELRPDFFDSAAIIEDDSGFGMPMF
The series is described as follows: AFM. The conditions noted are these: scale: % of SA1 bound at same locations as telomeric region.

For series [2], the target named is TRF1;SA1 (EMSA with TRF1) (human?;human?, UniProt P54274;Q8WVM7 1-439;1-1258, |). Description: EMSA. A general note: A gel shift assay detects complexes by their altered migration in electrophoresis.
The target of series [3] is T2, Flag-SA1 WT (UniProt Q8WVM7 1-1258).
T2 sequence: T1 sequence
The series is described as follows: fluorescence anisotropy. In general terms: Polarisation of emitted light reports the rotation of a fluorescent probe.

Sequence of TRF1;SA1 (EMSA with TRF1) (P54274 whole entry, one chain of several): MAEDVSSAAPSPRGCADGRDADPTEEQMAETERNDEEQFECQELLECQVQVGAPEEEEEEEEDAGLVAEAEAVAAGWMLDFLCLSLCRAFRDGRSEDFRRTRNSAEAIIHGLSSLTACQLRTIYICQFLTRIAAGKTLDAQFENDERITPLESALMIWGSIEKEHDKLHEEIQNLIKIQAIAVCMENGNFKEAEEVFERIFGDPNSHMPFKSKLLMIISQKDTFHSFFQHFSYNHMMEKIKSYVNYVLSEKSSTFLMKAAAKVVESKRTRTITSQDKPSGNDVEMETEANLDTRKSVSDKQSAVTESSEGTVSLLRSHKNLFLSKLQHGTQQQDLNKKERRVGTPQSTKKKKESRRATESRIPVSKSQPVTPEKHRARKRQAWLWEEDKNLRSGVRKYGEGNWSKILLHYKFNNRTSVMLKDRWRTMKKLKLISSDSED

In the series with Flag-SA1 WT [1], genomic control DNA registered a binding signal of 27.

B1: 3x TTAGGG EMSA duplex (dsDNA)
DNA 1: TTAGGGTTAGGGTTAGGGATGTCCAGCAAGCCAGAATTCGGCAGCGTA
DNA 2: TACGCTGCCGAATTCTGGCTTGCTGGACATCCCTAACCCTAACCCTAA
As for B1, the binding result in series [2] is given as “binds”.

B2: Scram (scrambled Tel7) (dsDNA)
DNA 1: CTGGATCCGTACAGTGTAAGGGTGAGTGGTTGGGTGTGTGGGTGTTGATGTAGAACAAGAATTCGA
DNA 2: TCGAATTCTTGTTCTACATCAACACCCACACACCCAACCACTCACCCTTACACTGTACGGATCCAG
Molecule B2 came in with a Kd in the series with Flag-SA1 WT [3] of 104 ± 13.6 nM.

B3: Tel7 (7 TTAGGG repeats) (dsDNA)
DNA 1: CTGGATCCGTACTTAGGGTTAGGGTTAGGGTTAGGGTTAGGGTTAGGGTTAGGGACAAGAATTCGA
DNA 2: TCGAATTCTTGTCCCTAACCCTAACCCTAACCCTAACCCTAACCCTAACCCTAAGTACGGATCCAG
On to B3, for which the affinity in the series with Flag-SA1 WT [3], expressed as Kd, was 34 ± 5.8 nM.

The Kd is a measure of binding affinity in units of concentration.
